Patent US20120149881A1 (Genentech, published 2012)

How the values were obtained:
[1] = biological target: T1, human IgE CH3-CH4-M1′/Fc fusion protein (human); test: SPR Biacore A100, M1′ immobilized
T1 construct: also called M1′ (immobilized)

M1' peptide 6 = biological target: T2, M1' peptide 6; test: ELISA on coated antigen, relative OD450/650
T2 construct: see f1
T2 peptide: VLCHSGQQQGLPRAA
Method: (§1) 15 peptides were generated spanning the sequence surrounding and including human M1′ (Clifford Quan) (FIG. 5A). Peptides were resuspended in either dH20 or 50% DMSO. […] 0.05% Tween-20, 10 ppm Proclin., 0.2% BgG, 0.25% Chaps, 5 mM EDTA, 0.35M NaCl]. […] Plates were then incubated for 2 hours at room temperature. Murine antibody plates were washed 3 times and then anti-mouse IgG1-Biotin (BD Biosciences (A85-1) #553441) was added (1:10,000, 100 μl per well) and incubated for 1 hour at RT. Following 3 washes, SA-HRP (BD Biosciences #554066) was added (1:20,000, 100 μl per well) and incubated for 1 hour. Human IgG1 antibody plates were washed as before and anti-hulgG.Fc-HRP (Jackson ImmunoResearch (#109-036-098)) was added (1:10,000, 100 μl per well) and incubated for 1 hour at RT. Once secondary incubations were complete, plates were washed 6 times and TMB substrate (BD OptEIA #555214) was added (100 μl per well). The substrate-HRP reaction was stopped with 1M H3PO4 after ˜4 minutes. Plates were then read at 450/650. Data was represented as relative OD (OD₄₅₀/CD650).

M1' peptide 1 = biological target: T3, M1' peptide 1; test: ELISA on coated antigen, relative OD450/650
T3 peptide: ASPSQTVQRAVSVNP
Method: as §1

M1' peptide 10 = biological target: T4, M1' peptide 10; test: ELISA on coated antigen, relative OD450/650
T4 construct: see f1
T4 peptide: HPRCHCGAGRADWPG
Method: as §1

M1' peptide 3 = biological target: T5, M1' peptide 3; test: ELISA on coated antigen, relative OD450/650
T5 construct: see f1
T5 peptide: GLAGGSAQSQRAPDR
Method: as §1

M1' peptide 14 = biological target: T6, M1' peptide 14; test: ELISA on coated antigen, relative OD450/650
T6 construct: see f1
T6 peptide: VCVEEAEGEAPWTWT
Method: as §1

M1' peptide 15 = biological target: T7, M1' peptide 15; test: ELISA on coated antigen, relative OD450/650
T7 construct: see f1
T7 peptide: AEGEAPWTWTGLCIF
Method: as §1

M1′ peptide 4 = biological target: T8, M1′ peptide 4 (human); test: ELISA on coated antigen, relative OD450/650
T8 peptide: SAQSQRAPDRVLCHS
Method: as §1

M1' peptide 9 = biological target: T9, M1' peptide 9; test: ELISA on coated antigen, relative OD450/650
T9 construct: see f1
T9 peptide: GGSVPHPRCHCGAGR
Method: as §1

M1′ peptide 7 = biological target: T10, M1′ peptide 7 (human); test: ELISA on coated antigen, relative OD450/650
T10 peptide: GQQQGLPRAAGGSVP
Method: as §1

M1′ peptide 8 = biological target: T11, M1′ peptide 8 (human); test: ELISA on coated antigen, relative OD450/650
T11 peptide: PRAAGGSVPHPRCH
Method: as §1

M1' peptide 12 = biological target: T12, M1' peptide 12; test: ELISA on coated antigen, relative OD450/650
T12 construct: see f1
T12 peptide: ADWPGPPELDVCVEE
Method: as §1

M1' peptide 2 = biological target: T13, M1' peptide 2; test: ELISA on coated antigen, relative OD450/650
T13 construct: see f1
T13 peptide: TVQRAVSVNPGLAGG
Method: as §1

M1′ peptide 5 = biological target: T14, M1′ peptide 5 (human); test: ELISA on coated antigen, relative OD450/650
T14 peptide: RAPDRVLCHSGQQQG
Method: as §1

M1' peptide 11 = biological target: T15, M1' peptide 11; test: ELISA on coated antigen, relative OD450/650
T15 construct: see f1
T15 peptide: CGAGRADWPGPPELD
Method: as §1

M1' peptide 13 = biological target: T16, M1' peptide 13; test: ELISA on coated antigen, relative OD450/650
T16 construct: see f1
T16 peptide: PPELDVCVEEAEGEA
Method: as §1

[2] = biological target: T17, human IgE with the M1′ sequence (long form of membrane IgE) expressed on transduced BJAB or Daudi cells (human, UniProt P01854 116-546); test: competitive ECL binding on BJAB-IgE/M1′ cells vs biotinylated 26A11 or 47H4, 1st IC50 column
T17 construct: Full-length heavy and light chains of the U266 IgE B cell receptor, retrovirally expressed; also called IgE/M1′; IgE-M1′

[3] = biological target: T17, human IgE with the M1′ sequence (long …); test: number printed in the titration panel; FIG. 3M calls these numbers 'Scatchard Results' (BJAB-Long cells)
Method: In addition to relative affinity determinations by antibody titration and FACs detection, we also determined affinities of selected anti-MP antibodies to BJAB cell lines expressing IgE long form using Scatchard analysis. BJAB-Long cells were prepared for binding in cold Binding buffer composed of base media, with 10 mM HEPES pH 7.4, and 2% FBS as well as 40 μg/ml human IgG. Cells were diluted to a concentration of 1.7×10⁶ cells/ml, and kept on ice until added to the assay. The antibodies were iodinated with Iodogen method. Various concentrations of unlabelled antibody were prepared in triplicate, using a 1:2 dilution starting with the saturation concentration and ending at a concentration of zero, with a total of 14 concentrations. Iodinated antibody of a single concentration was added to all dilutions of the competitor unlabelled antibody. Lastly 250,000 BJAB-Long cells were added to each mixture of iodinated and unlabelled antibody. The samples were incubated at 4° C. for 4 hours, shaking. Each sample was then collected and filtered on a membrane, washed at least 3 times with binding buffer, allowed to dry and then measured for 1 minute using a Perkin Elmer Wizard 1470 Auto Gamma Counter.

[4] = biological target: T17, human IgE with the M1′ sequence (long …); test: Scatchard analysis on cells expressing human IgE/M1′
Method: The BJAB or Daudi cells expressing various forms of IgE with or without M1′ (Human, Rhesus, Cyno) were prepared for binding in cold Binding buffer composed of base media, with 10 mM HEPES pH 7.4, and 2% FBS as well as 40 ug/ml human IgG. Cells are diluted to concentration of 1.7×10⁶ cells/ml, and kept on ice until they are added to the assay. The proteins/antibodies are iodinated with the Iodogen method. Various concentrations of cold protein are prepared in triplicate, using a 1:2 dilution starting with the saturation concentration and ending at a concentration of zero, with a total of 14 concentrations. Hot protein of a single concentration is added to all dilutions compete with the cold protein. Lastly the cells are added to the hot and cold protein mixture, 250,000 cells per sample were used. Assay is kept at 4° C. for 4 hours, shaking. Each sample is then collected and filtered on membrane, washed at least 3 times with binding buffer, allowed to dry and then counted for 1 minute using Perkin Elmer Wizard 1470 Auto Gamma Counter.

[5] = biological target: T17, human IgE with the M1′ sequence (long …); test: Scatchard, iodinated antibody on IgE/M1′ cells
[6] = biological target: T17, human IgE with the M1′ sequence (long …); test: competitive ECL binding on BJAB-IgE/M1′ cells vs biotinylated 26A11 or 47H4, 2nd IC50 column
[7] = biological target: T1, human IgE CH3-CH4-M1′/Fc fusion protein; test: SPR Biacore 2000, IgG immobilized, M1′-Fc analyte

T1 sequence (chain, as listed by the source limits assumed): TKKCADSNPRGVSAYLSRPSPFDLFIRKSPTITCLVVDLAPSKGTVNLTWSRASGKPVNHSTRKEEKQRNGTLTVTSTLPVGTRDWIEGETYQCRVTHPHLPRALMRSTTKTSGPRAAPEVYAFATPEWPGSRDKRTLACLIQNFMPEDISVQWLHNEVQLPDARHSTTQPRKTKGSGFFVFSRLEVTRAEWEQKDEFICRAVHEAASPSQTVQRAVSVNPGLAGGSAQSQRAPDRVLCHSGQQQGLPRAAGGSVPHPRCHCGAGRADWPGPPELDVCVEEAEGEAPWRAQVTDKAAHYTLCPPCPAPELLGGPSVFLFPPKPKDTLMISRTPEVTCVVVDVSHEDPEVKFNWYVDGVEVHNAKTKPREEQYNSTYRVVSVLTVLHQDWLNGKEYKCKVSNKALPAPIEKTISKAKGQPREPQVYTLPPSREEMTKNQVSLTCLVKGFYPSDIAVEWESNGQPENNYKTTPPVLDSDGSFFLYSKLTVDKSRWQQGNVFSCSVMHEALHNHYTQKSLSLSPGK
T17 sequence (P01854 116-546 I515L limits assumed): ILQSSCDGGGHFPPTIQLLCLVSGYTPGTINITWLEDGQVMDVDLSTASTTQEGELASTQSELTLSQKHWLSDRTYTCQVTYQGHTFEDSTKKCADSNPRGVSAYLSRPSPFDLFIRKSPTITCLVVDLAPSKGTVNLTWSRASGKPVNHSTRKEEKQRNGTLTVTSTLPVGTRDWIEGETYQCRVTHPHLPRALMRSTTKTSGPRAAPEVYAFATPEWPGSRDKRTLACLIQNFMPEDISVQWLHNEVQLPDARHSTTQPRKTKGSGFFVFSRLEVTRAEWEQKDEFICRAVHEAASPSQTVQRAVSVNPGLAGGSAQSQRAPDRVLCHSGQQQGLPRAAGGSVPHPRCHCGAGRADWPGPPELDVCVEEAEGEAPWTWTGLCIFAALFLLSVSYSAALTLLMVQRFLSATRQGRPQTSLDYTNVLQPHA

Binder	Kd [1] [nM]	binding result (M1' peptide 6)	binding result (M1' peptide 1)	binding result (M1' peptide 10)	binding result (M1' peptide 3)	binding result (M1' peptide 14)	binding result (M1' peptide 15)	binding result (M1′ peptide 4)	binding result (M1' peptide 9)	binding result (M1′ peptide 7)	binding result (M1′ peptide 8)	binding result (M1' peptide 12)	binding result (M1' peptide 2)	binding result (M1′ peptide 5)	binding result (M1' peptide 11)	binding result (M1' peptide 13)	IC50 [2] [nM]	Kd [3] [nM]	Kd [4] [nM]	further results
humanized anti-IgE/M1′ antibody 7A6.v1 (antibody, V domains shown, direct CDR graft, huIgG1; also called 7A6v1 huIgG1; 7A67v1 [sic]) VH: EVQLVESGGGLVQPGGSLRLSCAASGYTFIDYEMHWVRQAPGKGLEWVGAIDPETGTTAYNQKFKGRFTISADTSKNTAYLQMNSLRAEDTAVYYCTRLRPHYDYDNAMDSWGQGTLVTVSS VL: DIQMTQSPSSLSASVGDRVTITCKSSQTLLYSTNQKNYLAWYQQKPGKAPKLLIYWASTRESGVPSRFSGSGSGTDFTLTISSLQPEDFATYYCQQYYSYPYTFGQGTKVEIKR	15	no binding	no binding	no binding	no binding	no binding	no binding	binds	no binding	no binding	no binding	no binding	no binding	binds	no binding	no binding	39			
murine anti-IgE/M1′ antibody 1C11 (antibody, V domains shown, murine hybridoma antibody; also called 1C11.10.20) VH: QVQLQQSGAELVRPGASVTLSCKASGYTFTDFEMHWVKQTPVHGLEWIGAIAPETGTSAYNQKFRGKATLTADISSSTAYMDLRSLTSEDSAVYYCTIYYAAPWFAYWGQGTLVTVSS VL: DIVMSQSPSSLAVSVGEKVTMSCKSSQSLLYSSNQKNYLAWYQQKPGQSPKLLIYWASTRESGVPDRFTGSGSVTDFPLTISSVKAEDLAVYYCQQYYSYPYTFGGGTKVEIKR																		2.7		
murine anti-IgE/M1′ antibody 7A6 (antibody, V domains shown, mIgG1 hybridoma antibody; also called mu7A6; 7A6 mIgG1) VH: QVQLQQSGAELVRPGASVTLSCKASGYTFIDYEMHWVKQTPVHGLEWIGAIDPETGTTAYNQKFKGKATLTAAKSSSTAYMELRSLTSEDSAVYYCTRLRPHYDYDNAMDSWGQGTTLTVSS VL: DIVMSQSPSSLTVSVGEKVTLSCKSSQTLLYSTNQKNYLAWYQQKPGQSPKLLIYWASTRESGVPDRFTGSGSGTDFTLTISSVKAEDLAVYYCQQYYSYPYTFGGGTKVEIKR	4.5							binds						binds			52		0.64	Kd [5]: 0.6 nM
murine anti-IgE/M1′ antibody 45C1 (antibody, V domains shown, murine hybridoma antibody; also called 45C1.6.14) VH: QIQLVQSGPELKKPGETVKISCKASGYTFTNYGMNWVKQAPGKGLKWMGWINTYTGEPTYVDDFKGRFAFSLETSASTAYLQINNLKNEDMATYFCARGIYYDNDDIYWGQGTILTVSS VL: not shown																		16.8		
humanized anti-IgE/M1′ antibody 26A11.v6 (antibody, V domains shown, huIgG1; also called 26A11v6 huIgG1) VH: EVQLVESGGGLVQPGGSLRLSCAASGYTFTDYYIMWVRQAPGKGLEWVGDINPNNYDTSYNQKFKGRFTISADTSKNTAYLQMNSLRAEDTAVYYCASKAYWGQGTLVTVSS VL: DIQMTQSPSSLSASVGDRVTITCRSSQDISNYLNWYQQKPGKAPKLLIYSTSRLHSGVPSRFSGSGSGTDFTLTISSLQPEDFATYYCQQGHTLPWTFGQGTKVEIKR	2.6	no binding	no binding	no binding	no binding	no binding	no binding	no binding	no binding	binds	binds	no binding	no binding	no binding	no binding	no binding	11		1.85	IC50 [6]: 23 nM; Kd [7]: 8.3 nM
